Laboratory results published in the Human Domainome abundance scans (Beltran et al. 2025).

B1: Membrane-associated guanylate kinase, WW and PDZ domain-containing protein 3, residues 287 to 329; numbered along this chain, Q5TCQ9 (parent)
chain: MRDETLEPLPKNWEMAYTDTGMIYFIDHNTKTTTWLDPRLCKK
B2: Zinc finger homeobox protein 3, residues 2643 to 2698; numbered along this chain, Q15911 (parent)
chain: RLRTTITPEQLEILYQKYLLDSNPTRKMLDHIAHEVGLKKRVVQVWFQNTRARERK

Variants of: B1
Test: abundance fitness (aPCA) (normalised: wild type 0, dead -1); higher = more abundant; growth selection in yeast, the domain comes from the species named
Settings: Homo sapiens

Abundance fitness, by site and new letter:
T34: A -0.632, C -0.64, E -0.677, G -0.667, I -1.02, K -0.719, L -1.21, M -0.62, N -0.661, P -0.906, Q -0.28, R -0.71, S -0.106, V -0.924, W -0.743, Y -0.982
W35: A -0.248, C -0.222, D -0.359, E -0.361, F 0.074, G -0.341, H -0.447, I -0.257, L -0.146, M -0.16, N -0.339, P -0.34, Q -0.232, R -0.266, S -0.199, T -0.104, V -0.291, Y 0.126
L36: A -0.044, C -0.099, D -0.183, E -0.097, F -0.088, G -0.144, H -0.037, I -0.07, M -0.001, N -0.121, Q -0.03, R -0.013, T -0.078, V -0.019, W -0.061, Y -0.077
D37: A -0.436, C -0.459, E -0.556, G -0.557, H -0.166, I -1.04, K -0.407, M -1.02, N -0.235, P -0.168, Q -0.486, R -0.263, S -0.188, V -0.926, W -0.616, Y -0.731
P38: A -0.899, C -1.12, D -0.854, E -1.02, F -0.95, G -0.902, H -0.806, K -0.994, M -0.83, N -1.04, R -0.954, T -0.897, W -0.963, Y -1.17
R39: A -0.233, C -0.322, D -0.317, E -0.244, F -0.635, G -0.314, I -0.332, K -0.309, L -0.349, M -0.33, N -0.476, P -0.516, Q -0.417, S -0.259, T -0.22, V -0.301
L40: A -0.019, C -0.033, D -0.039, E 0.022, G -0.028, I -0.102, K 0.016, M -0.069, N 0.041, P -0.118, Q -0.014, R -0.02, S -0.053, T -0.085, V 0, Y -0.193
C41: A 0.058, D -0.006, E 0.038, F -0.044, G -0.004, H 0.051, I 0.059, K -0.015, L -0.013, P 0.043, Q 0.04, R -0.021, S 0.034, T 0.01, V 0.02, W 0.007, Y -0.005
K42: A 0.018, C -0.146, D 0.002, E 0.056, F -0.242, G -0.014, H -0.081, I -0.097, L -0.086, M -0.1, N -0.168, P -0.094, Q -0.056, R -0.038, S -0.063, T -0.029, V -0.099, W -0.115, Y -0.223
K43: A 0.011, C -0.065, E 0.031, G 0.03, H -0.036, I -0.144, L -0.011, N -0.062, P 0.042, Q 0.136, S 0.002, V -0.045, W -0.044

Variants of: B2
Test: as above
Settings: Homo sapiens

Abundance fitness, by site and new letter:
R1: A 0.267, C 0.239, G 0.258, I -0.063, K 0.027, L 0.561, M 0.23, N 0.354, S 0.131, T 0.504, V 0.297, Y 0.054
L2: A -0.009, D 0.655, E 0.17, F 0.082, G 0.136, H -0.006, I 0.217, M -0.221, N 0.232, P -0.227, Q 0.102, R -0.262, S 0.331, T 0.25, W -0.134, Y 0.222
R3: A 0.493, C 0.216, D 0.543, E 0.366, F 0.037, G 0.228, H 0.199, I 0.19, K 0.209, L 0.186, M 0.317, N 0.173, P -0.081, Q 0.353, S 0.43, T 0.435, W 0.241, Y 0.006
T4: A -0.193, C -0.56, D 0.154, E 0.439, F -0.378, G -0.002, H -0.337, I 0.048, K -0.318, L -0.335, M 0.068, N -0.042, P 0.149, R -0.576, S -0.144, V -0.106, W -0.423, Y -0.254
T5: A 0.132, C -0.107, D 0.075, E 0.445, F -0.358, H -0.784, I -0.165, K -0.593, M 0.286, N -0.233, P 0.176, Q 0.17, R -0.498, S -0.25, V -0.172, W -0.192, Y -0.319
I6: A -0.298, C -0.022, G -0.543, H -0.332, K -0.392, L 0.051, M 0.068, N -0.702, P -0.182, Q -0.705, R -0.868, S -0.648, T -0.211, V -0.022, Y 0.035
T7: A 0.08, C -0.244, E 0.087, G -0.072, L -0.212, M -0.228, N -0.338, P 0.101, R -0.443, S -0.169, V -0.688, W -0.719, Y -0.487
P8: A 0.388, C 0.475, D -0.084, E -0.259, F 0.584, G 0.193, I 0.993, K -0.352, L 0.991, M 0.57, N -0.06, Q -0.401, R 0.196, S -0.09, T -0.116, V 0.544, W 0.193, Y 0.116
E9: C -0.712, D -0.042, F -0.495, G -0.234, H -0.229, I -0.241, L -0.31, M -0.272, N -0.218, P -0.293, Q -0.038, R -0.277, S -0.267, T -0.211, V -0.246, W -0.516, Y -0.286
Q10: A -0.212, C -0.52, D 0.224, E -0.516, F -0.959, G -0.854, H -0.356, I -0.27, K -0.432, L -0.646, M -0.411, N -0.385, P -0.717, R -0.755, S -0.48, T -0.296, V -0.321, W -0.856, Y -0.792
L11: C -0.648, D 0.17, E 0.026, F -0.341, G -0.02, H 0.028, I -0.224, K -0.143, M -0.032, N 0.305
